Data taken from publication PMC5341072, “Activity screening of environmental metagenomic libraries reveals novel carboxylesterase families” (Scientific Reports, 2017).

How the values were obtained:
Format in all cases: biochemical, uncultured organism
[1] = substrate: O=C1Nc2ccccc2C1=O; assay: amidohydrolase activity, Michaelis-Menten or Hill fit; settings: metal-dependent amidohydrolase activity
Text: amidohydrolase activity, Michaelis-Menten or Hill fit on MGS0169

[2] = substrate: CC(=O)Oc1cccc2ccccc12; assay: spectrophotometric ester hydrolysis, Michaelis-Menten or Hill fit; settings: metal-dependent; 0.1 mM MnCl2 stated for the Figure 4 and 7 assays
Text: (§1) spectrophotometric ester hydrolysis, Michaelis-Menten or Hill fit on MGS0169

[3] = substrate: CCC(=O)Oc1cccc2ccccc12; assay: as above; settings: metal-dependent; 0.1 mM MnCl2 stated for the Figure 4 and 7 assays
Text: as §1

[4] = substrate: CC(=O)Oc1ccc([N+](=O)[O-])cc1; assay: as above; settings: metal-dependent; 0.1 mM MnCl2 stated for the Figure 4 and 7 assays
Text: as §1

B1: MGS0169 (uncultured organism) (protein)
chain: MAHAEGPALHPHEKLNNWGKWGDDDQRGAANYITPERIVAAARLIQTGKTFSLAIPIDSNGPVFPPRLPPHHTMEITGADYVADPGASPFGKSPIRFADDYIYMPLQGSTQWDALSHGWYGESLYNGVPEAAIRSSGAGGATKLGIENVKTSFLGRGVLVDIVRFKGGSLPEGYTITRADLEGALAKQKSKLLPGDILVIRTGLVESWYDLDPVGRASFFLNPMTGIGSDTVPWIHEQRLAGVAADNIALERVPHERAPELALPVHGNLLRDLGVYIGEIWWLEELAKDCAQDGRYEFFLAAQPLYIPGAVGSPLNPIAVK
notes: N-terminal 6His tag (modified pET15b), E. coli BL21(DE3), Ni-NTA purified; predicted 37 kDa, tetramer; crystal construct 21-341 aa
[1]
  Km: 19700 ± 4200 µM
  kcat: 1.9 ± 0.2 s⁻¹
  kcat/Km: 100 M⁻¹ s⁻¹
[2]
  Km: 490 ± 110 µM
  kcat: 14.9 ± 1.2 s⁻¹
  kcat/Km: 30000 M⁻¹ s⁻¹
[3]
  Km: 420 ± 120 µM
  kcat: 14.7 ± 1.4 s⁻¹
  kcat/Km: 40000 M⁻¹ s⁻¹
[4]
  Km: 400 ± 290 µM
  kcat: 71.2 ± 1.7 s⁻¹
  kcat/Km: 180000 M⁻¹ s⁻¹
